Laboratory results reported in US11298427B2, “Prodrugs comprising a pyroglutamate linker” (Ascendis Pharma A/S, priority 2015, dated 2022).
Like-named read-outs stand apart in the source and are kept apart here.

Assay: hydrolysis / release kinetics of linker-peptide conjugates in buffer at 37° C., LCMS analysis, half-life by curve fitting
Assay type: physicochemical
Experimental: The hydrolysis kinetics of PEGylated linker-peptide conjugate 8 were studied at pH 7.4, 37° C. and pH 8.9, 37° C. Therefore, the starting material 8 was dissolved in two different buffers (60 mM phosphate, pH 7.4 and 100 mM borate pH 8.9, respectively). The resulting solutions were incubated in a water bath at 37° C. At given points in time samples were withdrawn, quenched and analyzed by LCMS. Curve fitting software was applied to determine the corresponding half-life of the release.
Release kinetics were setup and analyzed according to example 5 with additional buffers at 37° C.
Release kinetics were setup and analyzed according to example 5 with changed buffers.

[1] = sodium phosphate buffer, pH 7.4, 100 mM sodium phosphate, pH 7.4, 37° C., read-out: half-life (converted)

With COCCOCCOCCOCCOCCOCCOCCOCCNC(=O)[C@@H](N)CCC(=O)NCCCC[C@H](NC(=O)[C@H](CO)NC(C)=O)C(=O)N[C@@H](Cc1ccc(O)cc1)C(=O)O [Compound 8] the half-life (borate buffer, pH 8.9, 100 mM borate, pH 8.9, 37° C., read-out: half-life of release of Ac-Ser-Lys-Tyr-OH (9) (converted)) was 220 days and the half-life (phosphate buffer, pH 7.4, 60 mM phosphate, pH 7.4, 37° C., read-out: half-life of release of Ac-Ser-Lys-Tyr-OH (9) (converted)) was 56 days.
Compound COCCOCCOCCOCCOCCOCCOCCOCCN(C)C(=O)[C@@H](N)CCC(=O)NCCCC[C@H](NC(=O)[C@H](CO)NC(C)=O)C(=O)N[C@@H](Cc1ccc(O)cc1)C(=O)O [Compound 25a] has a half-life [1] of 26 days.
CN[C@@H](CCC(=O)NCCCC[C@H](NC(=O)[C@H](CO)NC(C)=O)C(=O)N[C@@H](Cc1ccc(O)cc1)C(=O)O)C(=O)NCCOCCOCCOCCOCCOCCOCCOCCOC [Compound 25b] showed a half-life [1] of 164 days.
For CN[C@@H](CCC(=O)NCCCC[C@H](NC(=O)[C@H](CO)NC(C)=O)C(=O)N[C@@H](Cc1ccc(O)cc1)C(=O)O)C(=O)N(C)CCOCCOCCOCCOCCOCCOCCOCCOC [Compound 25c], the half-life (HEPES buffer, pH 7.4, 60 mM HEPES, 130 mM NaCl, pH 7.4, 37° C., read-out: half-life (converted)) was 149 days, the half-life (sodium borate buffer, pH 9, 100 mM sodium borate, pH 9.0, 37° C., read-out: half-life (converted)) was 92 days and the half-life (sodium citrate buffer, pH 4, 100 mM sodium citrate, pH 4.0, 37° C., read-out: half-life (converted)) was 129 days. For the same compound, the half-life (sodium citrate buffer, pH 5.5, 100 mM sodium citrate, pH 5.5, 37° C., read-out: half-life (converted)) was 207 days, the half-life (sodium citrate buffer, pH 6.5, 30 mM sodium citrate, pH 6.5, 37° C., read-out: half-life (converted)) was 339 days and the half-life (sodium citrate buffer, pH 6.5, 100 mM sodium citrate, pH 6.5, 37° C., read-out: half-life (converted)) was 336 days. For the same compound, the half-life (sodium phosphate buffer, pH 6.5, 100 mM sodium phosphate, pH 6.5, 37° C., read-out: half-life (converted)) was 35 days, the half-life (sodium phosphate buffer, pH 7.4, 30 mM sodium phosphate, pH 7.4, 37° C., read-out: half-life (converted)) was 55 days and the half-life (sodium phosphate buffer, pH 7.4, 60 mM sodium phosphate, pH 7.4, 37° C., read-out: half-life (converted)) was 36 days. The half-life [1] was 55 days and the half-life (sodium phosphate buffer, pH 7.4, 200 mM sodium phosphate, pH 7.4, 37° C., read-out: half-life (converted)) was 17 days.
